Each block holds one binder with its values, some of them ahead of it.
B1: BCMA, entire, overexpressed on transfected 293 cells (receptor)
chain: MLQMAGQCSQNEYFDSLLHACIPCQLRCSSNTPPLTCQRYCNASVTNSVKGTNAILWTCLGLSLIISLAVFVLMFLLRKISSEPLKDEFKNTGSGLLGMANIDLEKSRTGDEIILPRGLEYTVEECTCEDCIKSKPKVDSDHCFPLPAMEEGATILVTTKTNDYCKSLPAALSATEIEKSISAR
notes: also called BCMA-transfected 293 cells; cells that overexpressed entire BCMA
B2: extracellular domain of BCMA (residues 1 to 51 of SEQ ID NO:6), soluble monomer, cleaved from GST-BCMA (receptor)
chain: MLQMAGQCSQNEYFDSLLHACIPCQLRCSSNTPPLTCQRYCNASVTNSVKG
notes: Expressed as a GST fusion in pGEX4T-2 and cleaved from GST with thrombin; also called monomeric BCMA; monomeric BMCA

Experiments:
[1] = target: T1, soluble TALL-1 (sTALL-1), amino acids 134-285 of human TALL-1, His6-tagged, wild type (human, UniProt Q9Y275 134-285); test: flow cytometry on BCMA-transfected 293 cells, anti-His6 mAb detection
T1 construct: Expressed in E. coli; Monomers form trimers, and at pH 7.4 and above a virus-like cluster of 60 monomers (20 trimers); Immobilised as 'wild type multimeric sTALL-1' in the BIAcore assay; also called wild type sTALL-1; native sTALL-1; not shown: N-terminal His6 tag from vector pET14b
Experimental: (§1) First, BCMA-transfected 293 cells were incubated with control medium, wild type sTALL-1 in the control medium, and mutant sTALL-1 in the control medium. Cell staining was performed by sequential incubation (each 40 min) with anti-His₆ mAb and RPE-conjugated goat […] IgG in staining buffer. The fluorescence was measured by using a Becton Dickinson FACScan flow cytometer (Shu et al., 2000, supra) (data not shown).

[2] = target: T1, soluble TALL-1 (sTALL-1), amino acids …; test: BIAcore SPR, sTALL-1 immobilised on CM-5 chip, monomeric BCMA (10-1000 nM) injected, Scatchard analysis of equilibrium binding
Experimental: (§2) The binding affinity of BCMA for the wild type versus mutant sTALL-1 was further determined using BIACore surface plasmon resonance. To obtain the true affinity of the receptor without the confounding effect of multivalent binding, the polyvalent TALL-1 proteins were immobilized in the instrument flow cells and the soluble monomeric BCMA was injected in the mobile phase. The KD of the interaction was calculated by Scatchard analysis of the equilibrium data (data not shown). Briefly, wild type multimeric sTALL-1 and mutant trimeric sTALL-1 were immobilized (11,000 and 3000 RU, respectively) in separate flow cells of a CM-5 BIAcore Biosenser chip using standard amine coupling reagents. Various concentrations (10-1000 nM) of monomeric BMCA were injected for one min at a flow rate of 20 μl/min in a buffer of 100 mMNaCl, 20 mM Tris-HCI pH8.0 and 0.005% P20 detergent and the binding kinetics recording. For base line calculations the same BMCA samples were injected in a control flow cell with no protein immobilized. Receptor binding kinetics were too rapid for accurate measurements of on rates and off rates, but equilibrium binding values (Rmax) were used to calculate the overall affinity of receptor binding by Scatchard analysis.

[3] = target: T1, soluble TALL-1 (sTALL-1), amino acids …; test: co-expression, gel filtration at 100 mM to 1 M NaCl and SDS gel analysis, ratio 1:1
Experimental: However, four lines of evidence support the present inventors' belief that the crystal structure described herein reflects the actual interactions of the complexes in solution and in vivo. First, co-expression of sTALL-1 with eBCMA or eBAFF-R generates the virus-like cluster in solution as judged by gel-filtration column and […] analysis at a ratio of 1:1 (sTALL-1: eBCMA or eBAFF-R). Different salt concentrations (from 100 mM to 1 M NaCl) produce the same elution profile, in which complexes of sTALL-1 with eBCMA or eBAFF-R elute at a void volume on superdex-200. Thus, binding between ligand and receptors is stable and insensitive to salt concentrations. Purified samples of the preformed complexes were subjected to crystallization trials. Crystals of both complexes have been obtained, however neither of them diffracted. The results further confirmed that the “flap” region of TALL-1 which is involved in clustering, is not part of the receptor binding site. […] Second, in the receptor soaked sTALL-1 crystals, all seven fully occupied receptors and one partial receptor have equivalent binding sites on sTALL-1 in the asymmetry unit, so the binding is highly specific. Third, eBCMA and eBAFF-R have a similar binding mode and occupy the same site on sTALL-1. […]

[4] = target: B1; test: flow cytometry on BCMA-transfected 293 cells, anti-His6 mAb detection
Experimental: as §1

[5] = target: B2; test: BIAcore SPR, mutant trimeric sTALL-1 immobilised on CM-5 chip, monomeric BCMA (10-1000 nM) injected, Scatchard analysis of equilibrium binding; mutant trimeric sTALL-1 (flap removed) immobilised, monomeric BCMA injected
Experimental: as §2

Binder: B1
- binding result [1]: binds

Binder: B2
- Kd [2]: ~100 nM

Results, then the binder that gave them:

- binding result [3]: binds
B3: eBCMA, extracellular domain of BCMA (residues 1-52 of SEQ ID NO:6) (receptor)
chain: MLQMAGQCSQNEYFDSLLHACIPCQLRCSSNTPPLTCQRYCNASVTNSVKGT
notes: Residues 5-43 are ordered in the model; Made as a GST fusion and cleaved with thrombin

- binding result [4]: binds
- Kd [5]: ~100 nM
B4: mutant sTALL-1 with residues 217-224 of SEQ ID NO:2 (flap region) replaced by two glycines (ligand)
chain: AVQGPEETVTQDCLQLIADSETPTIQKGSYTFVPWLLSFKRGSALEEKENKILVKETGYFFIYGQVLYTDKTYAMGHLIQRKKGGSLVTLFRCIQNMPETLPNNSCYSAGIAKLEEGDELQLAIPRENAQISLDGDVTFFGALKLL
notes: Gel filtration gave trimer and monomer peaks and no cluster; Immobilised as 'mutant trimeric sTALL-1' in the BIAcore assay; also called truncated sTALL-1; sTALL-1 217-224; not shown: N-terminal His6 tag; the mutant was overexpressed and purified as the native sTALL-1 and detected with anti-His6 mAb; le

— patent publication US20070015695A1 (NATIONAL JEWISH HEALTH, published 2007)
